Reference: patent US20260061032A1 (GI INNOVATION, published 2026)

Assays:
hIL-2Rα = biological target: T1, hIL-2Rα (human, UniProt P01589 22-213); experiment: SPR, Biacore T200; hIL-2Rα on CM5 chip through His capture kit, binder as analyte
T1 construct: also called hIL-2Ra; IL-2 receptor alpha chain
T1 sequence (looked up): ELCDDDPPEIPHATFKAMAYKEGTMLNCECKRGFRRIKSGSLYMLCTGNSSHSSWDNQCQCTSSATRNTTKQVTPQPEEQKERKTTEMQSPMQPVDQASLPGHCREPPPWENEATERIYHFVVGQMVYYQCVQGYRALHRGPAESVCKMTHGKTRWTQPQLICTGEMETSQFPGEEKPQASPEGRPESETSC
Procedure: (§1) To quantitatively analyze the binding affinities to CD73 and IL-2 receptors of […] and GI-108B1, in which the anti-CD73 antibody that specifically binds to CD73 was linked to the IL-2 variant, and Aldesleukin (trade name: PROLEUKIN®, Novartis), the binding affinities were measured using SPR (surface plasmon resonance). Using a BIACORE™ T200 instrument (Cytiva), the binding affinities of GI-108A1 (AHF10240), GI-108A1 (AHP04167) and GI-108B1 to hCD73, cyCD73, mCD73, hIL-2Rα, hIL-2Rβ, and hIL-2Rβγ were analyzed. Oleclumab (Astrazeneca), produced on order from Ybiologics, Inc., was used as a control.
(§2) To analyze the binding affinity to hIL-2Ra, hIL-2Ra was […] immobilized on Sensor Chip CM5 using a His capture kit (Cytiva, USA). Each of GI-108A1 (AHF10240), GI-108A1 (AHP04167), GI-108B1 and PROLEUKIN®, diluted in HBS-EP+ buffer, was then applied for 1 minute, followed by analysis of association and dissociation. In addition, the binding affinities to hIL-2RB and hIL-2Rβγ were measured by a three-step analysis method including treating Sensor Chip SA (Cytiva, USA) with biotinylated CD73, and then binding each of GI-108A1 (AHF10240), GI-108A1 (AHP04167), GI-108B1 and PROLEUKIN® to CD73, followed by treatment with each of hIL-2RB and hIL-2Rβγ diluted in HBS-P+ buffer (Cytiva, USA). For hIL-2RB, association was performed for 1 minute and dissociation for 1 minute, and for hIL-2Rβγ, association was performed for 5 minutes and dissociation for 2 hours at each concentration, in a single cycle kinetics analysis. Each sensorgram was normalized and subtracted compared to a blank cell to calculate affinity.

hIL-2Rβ = biological target: T2, hIL-2Rβ (human, UniProt P14784 27-239); experiment: SPR, Biacore T200; biotinylated CD73 on SA chip, binder bound to CD73, hIL-2Rβ as analyte
T2 construct: also called hIL-2RB
T2 sequence (looked up): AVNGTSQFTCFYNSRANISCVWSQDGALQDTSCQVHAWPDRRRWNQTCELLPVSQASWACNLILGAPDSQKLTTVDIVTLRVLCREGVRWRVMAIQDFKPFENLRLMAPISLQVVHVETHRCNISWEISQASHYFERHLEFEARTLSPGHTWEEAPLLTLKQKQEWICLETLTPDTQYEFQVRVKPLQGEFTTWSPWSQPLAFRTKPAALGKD
Procedure: as §1, §2

[1] = biological target: T3, hIL-2Rαβγ on CTLL-2 cells (human, UniProt P01589 22-272; P14784 27-551; P31785 23-369); experiment: cell-based or functional assay
T3 sequence (looked up) 1: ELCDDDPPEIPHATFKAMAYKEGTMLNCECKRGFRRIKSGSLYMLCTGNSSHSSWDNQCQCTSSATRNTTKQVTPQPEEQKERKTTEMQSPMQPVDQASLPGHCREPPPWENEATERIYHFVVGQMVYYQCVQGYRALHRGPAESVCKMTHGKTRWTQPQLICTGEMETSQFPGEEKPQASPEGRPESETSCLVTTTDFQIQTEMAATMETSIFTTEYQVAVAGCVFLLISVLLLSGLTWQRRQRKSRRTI
T3 sequence (looked up) 2: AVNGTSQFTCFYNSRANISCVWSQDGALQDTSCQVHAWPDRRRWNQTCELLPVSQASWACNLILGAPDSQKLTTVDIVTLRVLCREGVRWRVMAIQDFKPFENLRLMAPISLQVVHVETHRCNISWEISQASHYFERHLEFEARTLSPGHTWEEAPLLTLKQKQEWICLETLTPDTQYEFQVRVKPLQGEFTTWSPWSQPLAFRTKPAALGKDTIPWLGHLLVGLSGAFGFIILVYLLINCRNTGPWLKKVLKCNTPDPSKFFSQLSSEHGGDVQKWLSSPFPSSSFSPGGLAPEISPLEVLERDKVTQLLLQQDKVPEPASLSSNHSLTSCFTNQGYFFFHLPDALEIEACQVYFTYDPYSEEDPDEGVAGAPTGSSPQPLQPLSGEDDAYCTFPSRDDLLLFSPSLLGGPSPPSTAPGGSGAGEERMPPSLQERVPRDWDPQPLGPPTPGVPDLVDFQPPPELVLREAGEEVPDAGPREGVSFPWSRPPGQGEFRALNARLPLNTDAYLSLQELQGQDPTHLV
T3 sequence (looked up) 3: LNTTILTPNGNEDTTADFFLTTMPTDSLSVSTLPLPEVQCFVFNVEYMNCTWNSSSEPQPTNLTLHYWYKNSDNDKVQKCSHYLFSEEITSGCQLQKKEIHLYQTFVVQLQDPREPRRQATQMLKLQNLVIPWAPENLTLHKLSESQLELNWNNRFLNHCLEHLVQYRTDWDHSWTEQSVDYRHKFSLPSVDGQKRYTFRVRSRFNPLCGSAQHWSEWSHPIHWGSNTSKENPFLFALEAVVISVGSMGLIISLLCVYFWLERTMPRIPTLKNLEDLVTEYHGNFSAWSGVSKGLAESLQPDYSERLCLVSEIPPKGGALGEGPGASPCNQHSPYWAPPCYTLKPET

[2] = biological target: T4, IL-2Rβγ on HEK-BLUE IL-2 reporter cells (UniProt P14784 27-551; P31785 23-369); experiment: cell-based or functional assay
T4 sequence (looked up) 1: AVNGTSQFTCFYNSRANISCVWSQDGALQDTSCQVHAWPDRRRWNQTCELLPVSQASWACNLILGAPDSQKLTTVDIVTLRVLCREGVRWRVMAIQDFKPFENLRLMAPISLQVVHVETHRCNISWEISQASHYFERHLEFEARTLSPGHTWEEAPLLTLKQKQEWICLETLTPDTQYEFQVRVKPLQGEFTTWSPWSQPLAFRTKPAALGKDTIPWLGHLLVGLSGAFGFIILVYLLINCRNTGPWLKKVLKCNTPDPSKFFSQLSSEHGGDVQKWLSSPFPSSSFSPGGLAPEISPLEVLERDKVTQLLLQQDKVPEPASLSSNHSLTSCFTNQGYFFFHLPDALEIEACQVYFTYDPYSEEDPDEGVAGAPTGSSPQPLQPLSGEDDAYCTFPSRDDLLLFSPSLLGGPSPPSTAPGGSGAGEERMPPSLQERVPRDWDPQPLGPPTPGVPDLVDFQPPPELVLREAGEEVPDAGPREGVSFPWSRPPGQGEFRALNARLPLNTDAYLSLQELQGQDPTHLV
T4 sequence (looked up) 2: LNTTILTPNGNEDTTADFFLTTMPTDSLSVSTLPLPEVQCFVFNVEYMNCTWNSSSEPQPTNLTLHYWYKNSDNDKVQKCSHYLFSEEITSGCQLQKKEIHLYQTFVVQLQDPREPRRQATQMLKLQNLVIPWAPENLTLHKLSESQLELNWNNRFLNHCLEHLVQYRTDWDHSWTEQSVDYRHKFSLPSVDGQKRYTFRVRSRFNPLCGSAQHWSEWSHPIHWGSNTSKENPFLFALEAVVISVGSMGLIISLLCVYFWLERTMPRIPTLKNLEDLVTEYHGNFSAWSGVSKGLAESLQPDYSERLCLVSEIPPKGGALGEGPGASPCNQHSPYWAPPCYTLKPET

hIL-2Rβγ = biological target: T5, hIL-2Rβγ (human, UniProt P14784 27-239; P31785 23-254); experiment: SPR, Biacore T200; biotinylated CD73 on SA chip, binder bound to CD73, hIL-2Rβγ as analyte, single cycle kinetics
T5 construct: Soluble beta/gamma heterodimer used as SPR analyte
T5 sequence (looked up) 1: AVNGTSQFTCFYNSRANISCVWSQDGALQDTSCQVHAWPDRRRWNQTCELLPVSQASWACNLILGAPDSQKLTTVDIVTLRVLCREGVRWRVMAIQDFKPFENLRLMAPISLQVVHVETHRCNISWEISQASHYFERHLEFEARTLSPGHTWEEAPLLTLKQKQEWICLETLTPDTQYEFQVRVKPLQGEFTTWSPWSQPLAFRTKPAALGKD
T5 sequence (looked up) 2: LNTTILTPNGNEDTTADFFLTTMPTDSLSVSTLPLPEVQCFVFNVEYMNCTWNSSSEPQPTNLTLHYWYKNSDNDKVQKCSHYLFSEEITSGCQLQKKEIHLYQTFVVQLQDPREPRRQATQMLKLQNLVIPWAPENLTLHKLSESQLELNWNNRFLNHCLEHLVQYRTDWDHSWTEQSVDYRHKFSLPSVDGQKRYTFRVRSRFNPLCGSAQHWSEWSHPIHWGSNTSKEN
Procedure: as §1, §2

B1: GI-108A1 (AHP04167) (Anti-CD73 sdAb-hIgG4 Fc-hIL2v3 fusion protein dimer) (Fc fusion)
chain: EVQLVESGGGLVQAGGSLRLSCVVSGRTFSNYHMGWFRQAPGKEREFVAVIGRSGGPTYYADSVKGRFTISRDNAKNTVYLQMNSLKPEDTAVYYCAGDWRNSDSPSKLKPVYDYWGQGTQVTVSSGGGGSAESKYGPPCPPCPAPEAAGGPSVFLFPPKPKDQLMISRTPEVTCVVVDVSQEDPEVQFNWYVDGVEVHNAKTKPREEQFNSTYRVVSVLTVLHQDWLNGKEYKCKVSNKGLPSSIEKTISKAKGQPREPQVYTLPPSQEEMTKNQVSLTCLVKGFYPSDIAVEWESNGQPENNYKTTPPVLDSDGSFFLYSRLTVDKSRWQEGNVFSCSVLHEALHNHYTQKSLSLSLGGGGGSGGGGSGGGGSAPTSSSTKKTQLQLEHLLLDLQMILNGINNYKNPKLTAMLTAKFYMPKKATELKHLQCLERELKPLEEVLNLAQSKNFHLRPRDLISNINVIVLELKGSETTFMCEYADETATIVEFLNRWITFCQSIISTLT
notes: Homodimer through hinge cysteines
binding result (hIL-2Rα): no binding
Kd (hIL-2Rβ): 2070 nM
EC50, CTLL-2 cell proliferation (WST-1 absorbance) [1]: 3.93 nM
EC50 of CTLL-2 cell proliferation, relative to PROLEUKIN [1]: 20 fold
EC50, SEAP reporter (JAK-STAT pathway activation) in HEK-BLUE IL-2 reporter cells [2]: 0.00394 nM
Kd (hIL-2Rβγ): 0.327 nM

B2: GI-108A1 (AHF10240) (Anti-CD73 sdAb-hIgG4 Fc-hIL2v3 fusion protein dimer) (Fc fusion)
chain: EVQLVESGGGVVQTGGSLRLSCAASGRTFTHLAMGWFRQAPGKEREFVAAISNSGAGTQFADSVKGRFTISRDNAKNTVYLQMNSLKPEDTAVYYCAADWGTRDSPSKLNAVYDYWGRGTQVTVSSGGGGSAESKYGPPCPPCPAPEAAGGPSVFLFPPKPKDQLMISRTPEVTCVVVDVSQEDPEVQFNWYVDGVEVHNAKTKPREEQFNSTYRVVSVLTVLHQDWLNGKEYKCKVSNKGLPSSIEKTISKAKGQPREPQVYTLPPSQEEMTKNQVSLTCLVKGFYPSDIAVEWESNGQPENNYKTTPPVLDSDGSFFLYSRLTVDKSRWQEGNVFSCSVLHEALHNHYTQKSLSLSLGGGGGSGGGGSGGGGSAPTSSSTKKTQLQLEHLLLDLQMILNGINNYKNPKLTAMLTAKFYMPKKATELKHLQCLERELKPLEEVLNLAQSKNFHLRPRDLISNINVIVLELKGSETTFMCEYADETATIVEFLNRWITFCQSIISTLT
notes: as for B1
binding result (hIL-2Rα): no binding
Kd (hIL-2Rβ): 2500 nM
EC50, CTLL-2 cell proliferation (WST-1 absorbance) [1]: 2.02 nM
EC50 of CTLL-2 cell proliferation, relative to PROLEUKIN [1]: 20 fold
EC50, SEAP reporter (JAK-STAT pathway activation) in HEK-BLUE IL-2 reporter cells [2]: 0.00263 nM
Kd (hIL-2Rβγ): 0.417 nM

B3: GI-108B1 (Anti-CD73 Ab-hIgG4 Fc-hIL2v3 fusion protein dimer) (antibody)
heavy: QVQLVQSGAEVKKPGSSVKVSCKFSGGSFTSYSFSWVRQAPGQGLEWMGRIIPVLTTTDYAQKFRDRVTITADESTSTAYMELSGLRSEDTAVYYCASGLKKNWYFDLWGRGALITVSSASTKGPSVFPLAPCSRSTSESTAALGCLVKDYFPEPVTVSWNSGALTSGVHTFPAVLQSSGLYSLSSVVTVPSSSLGTKTYTCNVDHKPSNTKVDKRVESKYGPPCPPCPAPEAAGGPSVFLFPPKPKDQLMISRTPEVTCVVVDVSQEDPEVQFNWYVDGVEVHNAKTKPREEQFNSTYRVVSVLTVLHQDWLNGKEYKCKVSNKGLPSSIEKTISKAKGQPREPQVYTLPPSQEEMTKNQVSLTCLVKGFYPSDIAVEWESNGQPENNYKTTPPVLDSDGSFFLYSRLTVDKSRWQEGNVFSCSVLHEALHNHYTQKSLSLSLGGGGGSGGGGSAPTSSSTKKTQLQLEHLLLDLQMILNGINNYKNPKLTAMLTAKFYMPKKATELKHLQCLERELKPLEEVLNLAQSKNFHLRPRDLISNINVIVLELKGSETTFMCEYADETATIVEFLNRWITFCQSIISTLT
light: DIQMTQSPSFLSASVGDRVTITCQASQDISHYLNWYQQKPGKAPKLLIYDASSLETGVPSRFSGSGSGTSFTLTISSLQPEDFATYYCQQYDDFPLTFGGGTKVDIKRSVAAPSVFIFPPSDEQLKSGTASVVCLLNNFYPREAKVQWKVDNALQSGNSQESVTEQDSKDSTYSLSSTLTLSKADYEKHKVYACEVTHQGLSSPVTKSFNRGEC
notes: IgG4 anti-CD73 antibody with the IL-2 variant fused to the C-terminus of each heavy chain; expressed in CHO cells, purified as a dimer
binding result (hIL-2Rα): no binding
Kd (hIL-2Rβ): 2290 nM
EC50, CTLL-2 cell proliferation (WST-1 absorbance) [1]: 1.7 nM
EC50 of CTLL-2 cell proliferation, relative to PROLEUKIN [1]: 20 fold
EC50, SEAP reporter (JAK-STAT pathway activation) in HEK-BLUE IL-2 reporter cells [2]: 0.00128 nM
Kd (hIL-2Rβγ): 0.2 nM
